Assay results published in patent publication US20240116985A1 (published 2024).
Blank lines part the entries; values can stand above or below the binder they belong to. Starred links: 1 amine or outer side, 2 acyl side, 3 side chain; linkers in the order of their positions; H or OH if unused. Positions of bridges follow the written chain, without caps; N, C: chain ends. Non-standard residues stand in square brackets, D forms with d. Primed or numbered codes have the meaning given here. *: point of attachment. PyrS2″ = (S)-3-amino-1-((pent-4-en-1-yloxy)carbonyl)pyrrolidine-3-carboxylic acid (stapling residue), C=CCCCOC(=O)N1CC[C@@](N[*:1])(C(=O)[*:2])C1; B5(4) = 2,2-bis(4-pentenyl)glycine = 2-amino-2-(pent-4-en-1-yl)hept-6-enoic acid (stitching residue), C=CCCCC(CCCC=C)(N[*:1])C(=O)[*:2]; TfeGA = (S)-2-amino-3-((carboxymethyl)(2,2,2-trifluoroethyl)amino)propanoic acid, O=C([C@H](CN(CC(=O)[*:3])CC(F)(F)F)N[*:1])[*:2]; PyrS2 = (S)-3-amino-1-((pent-4-en-1-yloxy)carbonyl)pyrrolidine-3-carboxylic acid, C=CCCCOC(=O)N1CC[C@@](N[*:1])(C(=O)[*:2])C1; PyrS1 = (S)-3-amino-1-((but-3-en-1-yloxy)carbonyl)pyrrolidine-3-carboxylic acid, C=CCCOC(=O)N1CC[C@@](N[*:1])(C(=O)[*:2])C1; MorphAsn = (S)-2-amino-4-morpholino-4-oxobutanoic acid, O=C(C[C@H](N[*:1])C(=O)[*:2])N1CCOCC1; B5(3) = 2,2-bis(4-pentenyl)glycine (stitching residue), C=CCCCC(CCCC=C)(N[*:1])C(=O)[*:2]; Me3AdamantC = 3,5,7-trimethyladamantane-1-carbonyl, CC12CC3(C)CC(C)(C1)CC(C(=O)*)(C2)C3; Me2NCBz = 4-((dimethylamino)methyl)benzoyl on Lys side chain, CN(C)Cc1ccc(C(=O)*)cc1; B5 = 2-amino-2-(pent-4-en-1-yl)hept-6-enoic acid, C=CCCCC(CCCC=C)(N[*:1])C(=O)[*:2]; B6 = 2-amino-2-(hex-5-en-1-yl)oct-7-enoic acid, C=CCCCCC(CCCCC=C)(N[*:1])C(=O)[*:2]; Me2Asn = listed as N4-methyl-L-asparagine, CNC(=O)C[C@H](N[*:1])C(=O)[*:2]; B5(28) = 2,2-bis(4-pentenyl)glycine, C=CCCCC(CCCC=C)(N[*:1])C(=O)[*:2]; MeAsn = N4-methyl-L-asparagine, CNC(=O)C[C@H](N[*:1])C(=O)[*:2]; MeGln = N5-methyl-L-glutamine, CNC(=O)CC[C@H](N[*:1])C(=O)[*:2]; Phe(3-COOH) = N[C@@H](Cc1cccc(C(=O)O)c1)C(=O)O; 2F3MeF = Cc1cccc(C[C@H](N[*:1])C(=O)[*:2])c1F; Phe(2-CF3) = N[C@@H](Cc1ccccc1C(F)(F)F)C(=O)O; Phe(3-Cl) = N[C@@H](Cc1cccc(Cl)c1)C(=O)O; Phe(2-Br) = N[C@@H](Cc1ccccc1Br)C(=O)O; Phe(2-Cl) = N[C@@H](Cc1ccccc1Cl)C(=O)O; Bta = N[C@@H](Cc1csc2ccccc12)C(=O)O; αAllylPro = C=CC[C@@]1(C(=O)O)CCCN1; tBuAla = CC(C)(C)C[C@H](N)C(=O)O; 3Thi = N[C@@H](Cc1ccsc1)C(=O)O; Cha = N[C@@H](CC1CCCCC1)C(=O)O; S8 = C=CCCCCCC[C@](C)(N)C(=O)O; AdamantC = not defined here; PyrS2(4) = not defined here; TfeGA″ = not defined here; Octanoyl = CCCCCCCC(=O)*; Ac5c = NC1(C(=O)O)CCCC1; Aib = CC(C)(N)C(=O)O; Butyryl = CCCC(=O)*

Key:
B-cat-Halo = biological target: T1, B-cat-Halo (UniProt P35222 1-781, HaloTag NanoBRET 618 Ligand bound to the HaloTag in the assay); test: cell-based or functional assay
T1 sequence (looked up): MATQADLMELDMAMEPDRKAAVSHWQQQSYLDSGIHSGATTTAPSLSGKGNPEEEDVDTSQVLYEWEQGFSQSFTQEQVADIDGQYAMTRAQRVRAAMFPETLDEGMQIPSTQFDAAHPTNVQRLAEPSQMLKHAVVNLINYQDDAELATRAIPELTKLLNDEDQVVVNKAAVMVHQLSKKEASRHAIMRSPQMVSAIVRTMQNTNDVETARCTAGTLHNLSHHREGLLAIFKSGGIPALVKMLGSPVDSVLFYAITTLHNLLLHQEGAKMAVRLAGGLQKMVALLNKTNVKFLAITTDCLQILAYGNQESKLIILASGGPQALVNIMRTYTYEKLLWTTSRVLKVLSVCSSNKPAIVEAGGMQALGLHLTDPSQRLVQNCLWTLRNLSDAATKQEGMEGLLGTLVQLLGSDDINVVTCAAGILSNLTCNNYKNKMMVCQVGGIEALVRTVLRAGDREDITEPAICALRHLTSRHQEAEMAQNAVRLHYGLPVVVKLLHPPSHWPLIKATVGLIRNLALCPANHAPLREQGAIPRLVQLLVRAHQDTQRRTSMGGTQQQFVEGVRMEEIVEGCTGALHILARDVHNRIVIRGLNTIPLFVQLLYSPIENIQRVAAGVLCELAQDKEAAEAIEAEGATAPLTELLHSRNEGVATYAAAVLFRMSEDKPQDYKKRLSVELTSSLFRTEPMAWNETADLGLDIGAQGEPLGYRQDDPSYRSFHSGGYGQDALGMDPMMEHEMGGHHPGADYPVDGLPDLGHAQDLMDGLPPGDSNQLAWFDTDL

[1] = biological target: T2, B-cat-Halo (beta-catenin HaloTag fusion expressed in HEK293 cells) (UniProt P35222 1-781); test: cell-based or functional assay
T2 sequence (looked up): T1 sequence (looked up)

NanoBRET Abs IC50 (B-cat-Halo): 15.2 µM
B1: I-919 (peptide)
peptide: Ac-[αAllylPro]D[tBuAla][B5(3)]DDAAFN[PyrS2(4)][3Thi][Bta]QK(AdamantC)-NH2
modifications: staple 1-4, 4-11; reading uncertain; also: printed as Ac-PL3-Asp-Npg-B5-Asp-Asp-Ala-Ala-Phe-Asn-PyrS2-3Thi-BztA-Gln-[AdamantC]Lys-NH2

NanoBRET Abs IC50 (B-cat-Halo): 29.9 µM
B2: I-926 (peptide)
peptide: Ac-[αAllylPro]D[tBuAla][B5(3)]D[TfeGA]AAFN[PyrS2″][Phe(3-Cl)][Bta]Q-NH2
modifications: staple 1-4, 4-11; not fully specified

NanoBRET Abs IC50 [1]: > 20 µM
B3: I-2493 (peptide)
peptide: Ac-[αAllylPro]D[tBuAla][B5(4)]NT[Ac5c]AFN[PyrS2″][3Thi][Bta]Q-NH2
modifications: staple 1-4, 4-11

NanoBRET Abs IC50 (B-cat-Halo): 8.2 µM
B4: I-927 (peptide)
peptide: Ac-[αAllylPro]D[tBuAla][B5(3)]D[TfeGA″]AAFN[PyrS2(4)][2F3MeF][Bta]Q-NH2
modifications: staple 1-4, 4-11; reading uncertain; also: staple stereoisomer, earlier-eluting HPLC peak

NanoBRET Abs IC50 (B-cat-Halo): 17.7 µM
B5: I-920 (peptide)
peptide: Ac-[αAllylPro]D[tBuAla][B5(3)]DDAAFN[PyrS2″][3Thi][Bta]QK(Me3AdamantC)-NH2
modifications: staple 1-4, 4-11

NanoBRET Abs IC50 [1]: > 20 µM
B6: I-2495 (peptide)
peptide: Ac-[αAllylPro]D[tBuAla][B5]NT[Aib]AFN[PyrS2][3Thi][Bta][MeAsn]-NH2
modifications: staple 1-4, 4-11

NanoBRET Abs IC50 (B-cat-Halo): 29.8 µM
B7: I-910 (peptide)
peptide: Ac-[αAllylPro]D[tBuAla][B5(3)]DDAAFN[PyrS2″][3Thi][Bta]QK(Me2NCBz)-NH2
modifications: staple 1-4, 4-11

NanoBRET Abs IC50 [1]: 27.3 µM
B8: I-2508 (peptide)
peptide: Ac-[αAllylPro]D[tBuAla][B6]D[Phe(3-COOH)]AAFL[PyrS1][Phe(2-CF3)][Bta]Q-NH2
modifications: staple 1-4, 4-11

NanoBRET Abs IC50 [1]: > 20 µM
B9: I-2497 (peptide)
peptide: Ac-[αAllylPro]D[tBuAla][B5]NT[Aib]AF[MeAsn][PyrS2][3Thi][Bta]N-NH2
modifications: staple 1-4, 4-11

NanoBRET Abs IC50 (B-cat-Halo): 6 µM
B10: I-923 (peptide)
peptide: Ac-[αAllylPro]D[tBuAla][B5(3)]D[TfeGA]AAFF[PyrS2″][Phe(2-Cl)][Bta]Q-NH2
modifications: staple 1-4, 4-11

NanoBRET Abs IC50 (B-cat-Halo): 3.3 µM
B11: I-924 (peptide)
peptide: Ac-[αAllylPro]D[tBuAla][B5(3)]D[TfeGA]AAFN[PyrS2″][Phe(2-Br)][Bta]Q-NH2
modifications: staple 1-4, 4-11

NanoBRET Abs IC50 [1]: > 20 µM
B12: I-2504 (peptide)
peptide: Ac-[αAllylPro]N[Cha][B5]DQQAFL[PyrS2]F[Bta][MorphAsn]-NH2
modifications: staple 1-4, 4-11

NanoBRET Abs IC50 [1]: > 20 µM
B13: I-2501 (peptide)
peptide: Ac-[αAllylPro]N[Cha][B5]DQ[Me2Gln]AFL[PyrS2]F[Bta][MorphAsn]-NH2
modifications: staple 1-4, 4-11

NanoBRET Abs IC50 (B-cat-Halo): 10.3 µM
B14: I-929 (peptide)
peptide: Ac-[αAllylPro]D[tBuAla][B5(3)]D[TfeGA]AAFN[S8][Phe(2-Cl)][Bta]Q-NH2
modifications: staple 1-4, 4-11

NanoBRET Abs IC50 (B-cat-Halo): 6.1 µM
B15: I-928 (peptide)
peptide: Ac-[αAllylPro]D[tBuAla][B5(3)]D[TfeGA]AAFN[PyrS2″][Phe(2-CF3)][Bta]Q-NH2
modifications: staple 1-4, 4-11; not fully specified

NanoBRET Abs IC50 (B-cat-Halo): 13.6 µM
B16: I-916 (peptide)
peptide: Ac-[αAllylPro]D[tBuAla][B5(3)]DDAAFN[PyrS2(4)][3Thi][Bta]QK(1Napc)-NH2
modifications: staple 1-4, 4-11; reading uncertain; also: printed as Ac-PL3-Asp-Npg-B5-Asp-Asp-Ala-Ala-Phe-Asn-PyrS2-3Thi-BztA-Gln-[1Napc]Lys-NH2

NanoBRET Abs IC50 (B-cat-Halo): 22.9 µM
B17: I-911 (peptide)
peptide: Ac-[αAllylPro]D[tBuAla][B5(3)]DDAAFN[PyrS2″][3Thi][Bta]QK(mPEG2)-NH2
modifications: staple 1-4, 4-11; not fully specified; printed as Ac-PL3-Asp-Npg-B5-Asp-Asp-Ala-Ala-Phe-Asn-PyrS2-3Thi-BztA-Gln-[mPEG2]Lys-NH2

NanoBRET Abs IC50 (B-cat-Halo): 2.7 µM
B18: I-922 (peptide)
peptide: Ac-[αAllylPro]D[tBuAla][B5(28)]D[TfeGA″]AAFT[PyrS2][Phe(2-Cl)][Bta]Q-NH2
modifications: staple 1-4, 4-11; reading uncertain

NanoBRET Abs IC50 [1]: > 20 µM
B19: I-2496 (peptide)
peptide: Ac-[αAllylPro]D[tBuAla][B5]NT[Aib]AF[Me2Asn][PyrS2][3Thi][Bta]N-NH2
modifications: staple 1-4, 4-11

NanoBRET Abs IC50 (B-cat-Halo): 15.5 µM
B20: I-915 (peptide)
peptide: Ac-[αAllylPro]D[tBuAla][B5(3)]DDAAFN[PyrS2(4)][3Thi][Bta]QK(2Napc)-NH2
modifications: staple 1-4, 4-11; reading uncertain; also: printed as Ac-PL3-Asp-Npg-B5-Asp-Asp-Ala-Ala-Phe-Asn-PyrS2-3Thi-BztA-Gln-[2Napc]Lys-NH2

NanoBRET Abs IC50 (B-cat-Halo): 11.1 µM
B21: I-918 (peptide)
peptide: Ac-[αAllylPro]D[tBuAla][B5(3)]DDAAFN[PyrS2″][3Thi][Bta]QK(Octanoyl)-NH2
modifications: staple 1-4, 4-11; not fully specified; printed as Ac-PL3-Asp-Npg-B5-Asp-Asp-Ala-Ala-Phe-Asn-PyrS2-3Thi-BztA-Gln-[Oct]Lys-NH2

NanoBRET Abs IC50 [1]: > 20 µM
B22: I-2502 (peptide)
peptide: Ac-[αAllylPro]N[Cha][B5]DQ[MeGln]AFL[PyrS2]F[Bta][MorphAsn]-NH2
modifications: staple 1-4, 4-11

NanoBRET Abs IC50 (B-cat-Halo): 20 µM
B23: I-925 (peptide)
peptide: Ac-[αAllylPro]D[tBuAla][B5(3)]D[TfeGA]AAFN[PyrS2″][Phe(3-Cl)][Bta]Q-NH2
modifications: staple 1-4, 4-11; not fully specified

NanoBRET Abs IC50 [1]: > 20 µM
B24: I-2494 (peptide)
peptide: Ac-[αAllylPro]D[tBuAla][B5]NT[Aib]AFN[PyrS2][3Thi][Bta][Me2Asn]-NH2
modifications: staple 1-4, 4-11

NanoBRET Abs IC50 (B-cat-Halo): 19.7 µM
B25: I-917 (peptide)
peptide: Ac-[αAllylPro]D[tBuAla][B5(3)]DDAAFN[PyrS2″][3Thi][Bta]QK(Butyryl)-NH2
modifications: staple 1-4, 4-11
